21 sequences from the DeepSol protein solubility set can be followed below.

The nature of this data set: soluble on expression in E. coli; label from the status in PepcDB or PDB records.
“MGGKKFQAMPQLPSTVLDRVFEQARQQPEAIALRRCDGTSALRYRELVAEVGGLAADLRAQSVSRGSRVLVISDNGPETYLSVLACAKLGAIAVMADGNLPIAAIERFCQITDPAAALVAPGSKMASSAVPEALHSIPVIAVDIAAVTRESEHSLDAASLAGNADQGSEDPLAMIFTSGTTGEPKAVLLANRTFFAVPDILQKEGLNWVTWVVGETTYSPLPATHIGGLWWILTCLMHGGLCVTGGENTTSLLEILTTNAVATTCLVPTLLSKLVSELKSANATVPSLRLVGYGGSRAIAADVRFIEATGVRTAQVYGLSETGCTALCLPTDDGSIVKIEAGAVGRPYPGVDVYLAATDGIGPTAPGAGPSASFGTLWIKSPANMLGYWNNPERTAEVLIDGWVNTGDLLERREDGFFYIKGRSSEMIICGGVNIAPDEVDRIAEGVSGVREAACYEIPDEEFGALVGLAVVASAELDESAARALKHTIAARFRRESEPMARPSTIVIVTDIPRTQSGKVMRASLAAAATADKARVVVRG”: the “soluble on expression in E. coli” value is reported as “soluble”.
On to “MGGSHHHHHHGMASALANEEDDPVVQEIDVYLAKSLAEKLYLFQYPVRPASMTYDDIPHLSAKIKPKQQKVELEMAIDTLNPNYCRSKGEQIALNVDGACADETSTYSSKLMDKQTFCSSQTTSNTSRYAAALYRQGELHLTPLHGILQLRPSFSYLDKADAKHREREAANEAGDSSQDEAEDDVKQITVRFSRPESEQARQRRVQSYEFLQKKHAEEPWVHLHYYGLRDSRSEHERQYLLCPGSSGVENTELVKSPSEYLMMLMPPSQEEEKDKPVAPSNVLSMAQLRTLPLADQIKILMKNVKVMPFANLMSLLGPSIDSVAVLRGIQKVAMLVQGNWVVKSDILYPKDSSSPHSGVPAEVLCRGRDFVMWKFTQSRWVVRKEVATVTKLCAEDVKDFLEHMAVVRINKGWEFILPYDGEFIKKHPDVVQRQHMLWTGIQAKLEKVYNLVKETMPKKPDAQSGPAGLVCGDQRIQVAKTKAQQNHALLERELQRRKEQLRVPAVPPGVRIKEEPVSEEGEEDEEQEAEEEPMDTSPSGLHSKLANGLPLGRAAGTDSFNGHPPQGCASTPVARELKAFVEATFQRQFVLTLSELKRLFNLHLASLPPGHTLFSGISDRMLQDTVLAAGCKQILVPFPPQTAASPDEQKVFALWESGDMSDQDCCVSYGGMWYLKGTVQS”, for which the “soluble on expression in E. coli” value is listed as “not soluble”.
Regarding “MGGSHHHHHHGMASALAQVAMSTLPVEDEESSESRMVVTFLMSALESMCKELAKSKAEVACIAVYETDVFVVGTERGRAFVNTRKDFQKDFVKYCVEEEEKAAEMHKMKSTTQANRMSVDAVEIETLRKTVEDYFCFCYGKALGKSTVVPVPYEKMLRDQSAVVVQGLPEGVAFKHPENYDLATLKWILENKAGISFIIKRPFLEPKKHVGGRVMVTDADRSILSPGGSCGPIKVKTEPTEDSGISLEMAAVTVKEESEDPDYYQYNIQGSHHSSEGNEGTEMEVPAEG”, the “soluble on expression in E. coli” value is recorded as “not soluble”.
On to “MGGSHHHHHHGMASLAPGSSRVELFKRQSSKVPFEKDGKVTERVVHSFRLPALVNVDGVMVAIADARYETSFANSLIDTVAKYSVDDGETWETQIAIKNSRASSVSRVVDPTVIVKGNKLYVLVGSYNSSRSYWTSHGDARDWDILLAVGEVTKSTAGGKITASIKWGSPVSLKEFFPAEMEGMHTNQFLGGAGVAIVASNGNLVYPVQVTNKKKQVFSKIFYSEDEGKTWKFGKGRSAFGCSEPVALEWEGKLIINTRVDYRRRLVYESSDMGNTWLEAVGTLSRVWGPSPKSNQPGSQSSFTAVTIEGMRVMLFTHPLNFKGRWLRDRLNLWLTDNQRIYNVGQVSIGDENSAYSSVLYKDDKLYCLHEINSNEVYSLVFARLVGELRIIKSVLQSWKNWDSHLSSICTPADPAASSSERGCGPAVTTVGLVGFLSHSATKTEWEDAYRCVNASTANAERVPNGLKFAGVGGGALWPVSQQGQNQRYHFANHAFTLVASVTIHEVPKGASPLLGASLDSSGGKKLLGLSYDKRHQWQPIYGSTPVTPTGSWEMGKRYHVVLTMANKIGSVYIDGEPLEGSGQTVVPDERTPDISHFYVGGYKRSGMPTDSRVTVNNVLLYNRQLNAEEIRTLFLSQDLIGTEAHMD”, for which the “soluble on expression in E. coli” value is recorded as “soluble”.
Turning to “MGHHHHHHGGHMSLGALILSDRDIRALLAIGDLVVEPLSGDTVRENGLDLRLGRGFCRFKRSDRVLDPRAPGSPGEFYECGEGDEIIVGPGEHMLLHTQEYIRLPGYVAGLVNLRSTWARTGIYIPATVVDAGFEGQLTIEVVGSGFPVKLYPGDRFLHLVLVKLQSPAMNPYRGRYQGQRGVRLPKLFAKNTGEGGS”, the “soluble on expression in E. coli” value was “soluble”.
With “MGHHHHHHHHHHSSGHIEGRHMANPLAGKPFYVDPASAAMVAARNANPPNAELTSVANTPQSYWLDQAFPPATVGGTVARYTGAAQAAGAMPVLTLYGIPHRDCGSYASGGFATGTDYRGWIDAVASGLGSSPATIIVEPDALAMADCLSPDQRQERFDLVRYAVDTLTRDPAAAVYVDAGHSRWLSAEAMAARLNDVGVGRARGFSLNVSNFYTTDEEIGYGEAISGLTNGSHYVIDTSRNGAGPAPDAPLNWCNPSGRALGAPPTTATAGAHADAYLWIKRPGESDGTCGRGEPQAGRFVSQYAIDLAHNAGQ”, the “soluble on expression in E. coli” value is “soluble”.
For “MGHHHHHHSHAEDATERACGLTMDPECAQLLPALCAVLVDPRQPVADDTCLEKLLDWFKTVTEGESSVVLLQEHPCLVELLSHVLKVQDLSSGVLSFSLRLAGTFAAQENCFQYLQQGELLPGLFGEPGPLGRATWAVPTVRSGWIQGLRSLAQHPSALRFLADHGAVDTIFSLQGDSSLFVASAASQLLVHVLALSMRGGAEGQPCLPGGDWPACAQKIMDHVEESLCSAATPKVTQALNVLTTTFGRCQSPWTEALWVRLSPRVACLLERDPIPAAHSFVDLLLCVARSGPRDAAGGPGWATVFLG”, the “soluble on expression in E. coli” value is on record as “not soluble”.
Turning to “MGHHHHHHSHALLEKEILEKVSSPFIVSLAYAFESKTHLCLVMSLMNGGDLKFHIYNVGTRGLDMSRVIFYSAQIACGMLHLHELGIVYRDMKPENVLLDDLGNCRLSDLGLAVEMKGGKPITQRAGTNGYMAPEILMEKVSYSYPVDWFAMGCSIYEMVAGRTPFKDYKEKVSKEDLKQRTLQDEVKFQHDNFTEEAKDICRLFLAKKPEQRLGSR”, the “soluble on expression in E. coli” value is “not soluble”.
For the sequence “MGHHHHHHSHDRVNGVAKEYVIYGYGEPLLYPDFFKRIEGFDGKVVISTNGMLDSDILDLADKVGVSIDVNDKFRKGLEVEKALEVLRKLGERGIAEVVVTKDNLELLPAFFERIAEHGSGMLATNVVASNPAIYEQGVYFECSRITVEKVLGLDESILVEAIKDCSRGGGEALRRYKHLLKEVYSKGYSINLLAIFGRKGRVETAFKA”, the “soluble on expression in E. coli” value is listed as “soluble”.
Consider “MGHHHHHHSHGTRAFGARRNTIDSTSSFSQFRNLSHRSLSIGRASGTQGSLDTGSDLGDFMDYDPNLLDDPQWPCGKHKRVLIFPSYMTTVIDYVKPSDLKKDMNETFKEKFPHIKLTLSKIRSLKREMRKLAQEDCGLEEPTVAMAFVYFEKLALKGKLNKQNRKLCAGACVLLAAKIGSDLKKHEVKHLIDKLEEKFRLNRRELIAFEFPVLVALEFALHLPEHEVMPHYRRLVQSS”, for which the “soluble on expression in E. coli” value is given as “soluble”.
On to “MGHHHHHHSHGYRSVRERTSTSGTHRDREDSKFRRTRPLECQDALETAARAEGLSLDASMHSQLRILDEEHPKGKYHHGLSALKPIRTTSKHQHPVDNAGLFSCMTFSWLSSLARVAHKKGELSMEDVWSLSKHESSDVNCRRLERLWQEELNEVGPDAASLRRVVWIFCRTRLILSIVCLMITQLAGFSGPPTDLRKEGMNLQTLRLRSSNKHQRFPGLPRAPVYQKLLERMKH”, for which the “soluble on expression in E. coli” value was “soluble”.
Regarding “MGHHHHHHSHHRFSINGHFYNHKTSVFTPAYGSVTNVRINSTMTTPQVLKLLLNKFKIENSAEEFALYVVHTSGEKQKLKATDYPLIARILQGPCEQISKVFLMEKDQVEEVTYDVAQYIKFEMPVLKSFIQKLQEEEDREVKKLMRKYTVLRLMIRQRLEEIAETPATI”, the “soluble on expression in E. coli” value is recorded as “not soluble”.
With “MGHHHHHHSHMAKQPTVLWAQRESLVYLTIEVDEAKIEELKGEGNKLHFQGSSKTDKYEATLEFFDEIDPASVKHTGSSTRVVEITVQKKTPAWWPRLLQNKGKVHWLKVDFGKWKDEDEDDEAEDAGAGIGGGMANGFDLNQYMSQMGGAGGADFGGLEDDEEDDDMPDLEDNEEEEGKNGTRA”, the “soluble on expression in E. coli” value is given as “soluble”.
For the sequence “MGHHHHHHSHMATSEILPSFVATMDASNFSFWQVLCSWLSNSPNYEEITKWYLGWKSMFSDQVLAHPSVKDKFNEALDIMNRAVSSNVGAYMQPGARENIAYLTHTERRKDFQYEAMQERREAENMAQRGIGVAASSVPMNFKDLIETKAEEHNIVFMPVIGKRHEGKQLYTFGRIVIYIDRGVVFVQGEKTWVPTSLQSLIDMAK”, the “soluble on expression in E. coli” value is on record as “not soluble”.
Take “MGHHHHHHSHMCSSGGPVDRAPDSSKDGKNHHKTMGHYNHNDSLRKTQINSLKNSVACPGAQKAITSSEAVDRFMPRTTQLQERKRRREDDRKLGTFLQTNPTGNEIMIGPLLPDISKVDMHDDSLNTTANLIRHKLKEVISSVPKPPEDKPEDVHTSRPLKQRRRI”: the “soluble on expression in E. coli” value is “soluble”.
Next, “MGHHHHHHSHMDKNVISVKIMEEKRDESTGVIYRKRIAICQNVVPEILRKVSILKVPNIQLEEESWLNPRERNMAIRSHCLTWTQYASMKEESVFRESMENPNWTEFIQRGRISITGVGFLNCVLETFASTFLRQGAQKGIRIMEMLLKEQCGAPLAE”: “not soluble”.
Consider “MGHHHHHHSHMEFVTNYTLEELKKRFTELGLEPYRAKQVFRWVYKKFVTDFEKMTDLGKKHRELLKEHFAFHPLEKLDRVEAPDAVKYLFKTKDGHILETVLIKERDHYTLCVSSQIGCAVGCTFCATALDGLKRNLSTAEIIDQYLQVQQDLGEEKIRNVVFMGMGEPLANYENVRKAVEIMVSPEGLDLSKRRITISTSGIVAQIKRMAQDPVMKEVNLAVSLNAVSQKKREELMPLTKTNTLEELMEVLKNYPLPKYRRITLEYVLIKGVNDSPNDAERLAKLIGRHKKKFKVNLIPFNPDPNLPYERPALTDIMKFQKVLWKYGISNFVRFSKGVEVFGACGQLRTQRLQLQRV”, for which the “soluble on expression in E. coli” value is reported as “soluble”.
Take “MGHHHHHHSHMEGTQETYTVAHEENVRFVSEAWQQVQQQLDGGPAGEGGPRPVQYVERTPNPRLQNFVPIDLDEWWGAAVPGENHQLFLVAAGRGRCYTADLSPGEKHGALPTHCAWLGAGHT”: the “soluble on expression in E. coli” value is listed as “not soluble”.
As for “MGHHHHHHSHMEYSYIPSFALYNNADMFQFFPRNKRLSTHQKSCLDEHARKMAVFMMKRQEEYRYYENLANQEQFSDDAHFSDNGMDSGFCSGATSTGQSASTSPAPVQLIPNPFFDPEAKTQSPVKLVDNPELFMESKKKSARISA”, the “soluble on expression in E. coli” value is listed as “not soluble”.
On to “MGHHHHHHSHMFIASKKSYFEAVYRSTVSSHSEEFWKSDDPVYFTQYKKQCNRLPNAYLGTLHSASKYSENFRHYVATFSNSPLDFPQSVFNERNPCEYSVPYLDSALQCSAKTLVGCSVSTTERNEYEVCKEATRCFKDAMSHKVLKVFLSNLSWFLKGHYKSKQAFLEPFQKQLILHSFMFVASIKCPETTTKLFDEFKFLLDMLYFDNTDLLTFLQKSPAFLIPRRHGKTWIVTAIISMLLTSVDDLHIGYVAHQKHVSLAVFLEISNILLAWFPRKNIDIKKENGVILYSHPGKKSSTLMCATCFNKNVSVI”, for which the “soluble on expression in E. coli” value is given as “not soluble”.
Take “MGHHHHHHSHMFYLAAAVSDFYVPVSEMPEHKIQSSGGPLQITMKMVPKLLSPLVKDWAPKAFIISFKLETDPAIVINRARKALEIYQHQVVVANILESRQSFVFIVTKDSETKLLLSEEEIEKGVEIEEKIVDNLQSRHTAFIGDRN”: the “soluble on expression in E. coli” value was “not soluble”.
